T1: human CLDN3 (human, UniProt O15551 1-220)
T1 construct: whole, on cells
T1 sequence (looked up): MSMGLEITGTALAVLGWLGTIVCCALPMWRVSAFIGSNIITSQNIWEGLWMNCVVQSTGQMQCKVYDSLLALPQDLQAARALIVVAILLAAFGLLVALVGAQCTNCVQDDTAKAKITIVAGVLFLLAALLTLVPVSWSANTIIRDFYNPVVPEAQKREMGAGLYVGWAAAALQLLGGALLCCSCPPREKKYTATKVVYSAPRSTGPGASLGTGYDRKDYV

T2: human CLDN4 (human, UniProt O14493 1-209)
T2 construct: whole, on cells
T2 sequence (looked up): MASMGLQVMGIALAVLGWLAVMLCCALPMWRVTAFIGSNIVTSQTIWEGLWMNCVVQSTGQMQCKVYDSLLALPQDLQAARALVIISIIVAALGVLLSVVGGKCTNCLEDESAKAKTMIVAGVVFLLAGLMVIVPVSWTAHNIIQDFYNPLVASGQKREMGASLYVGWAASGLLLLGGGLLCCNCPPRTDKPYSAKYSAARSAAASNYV

T3: human CLDN6 (human, UniProt P56747 1-220)
T3 construct: Four-transmembrane protein, NP_067018; It was also expressed on CHO-K1 cells by cDNA transfection; In the immunoprecipitation it was the endogenous protein from NTERA-2 cell lysate; also called hCLDN6; claudin-6
T3 sequence: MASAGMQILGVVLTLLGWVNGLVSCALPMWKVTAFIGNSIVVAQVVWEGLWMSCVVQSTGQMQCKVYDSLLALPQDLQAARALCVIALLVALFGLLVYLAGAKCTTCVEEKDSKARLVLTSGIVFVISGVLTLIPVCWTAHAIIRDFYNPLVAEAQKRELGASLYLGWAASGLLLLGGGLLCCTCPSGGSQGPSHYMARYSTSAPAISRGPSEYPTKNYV

T4: human CLDN9 (human, UniProt O95484 1-217)
T4 construct: NP_066192; It was expressed on 293T cells transiently transfected with human CLDN9/pCMV6-Entry (OriGene); also called claudin-9
T4 sequence: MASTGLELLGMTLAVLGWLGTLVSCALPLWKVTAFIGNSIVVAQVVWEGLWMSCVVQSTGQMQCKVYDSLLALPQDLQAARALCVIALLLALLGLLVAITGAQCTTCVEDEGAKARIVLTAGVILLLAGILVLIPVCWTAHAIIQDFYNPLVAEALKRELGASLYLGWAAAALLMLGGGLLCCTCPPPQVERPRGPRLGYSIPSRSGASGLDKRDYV

T5: human claudin-6 (Homo sapiens, UniProt P56747)
T5 construct: expressed in transfected cells; host or cells: CHO-K1 cells
T5 sequence (P56747 1-220): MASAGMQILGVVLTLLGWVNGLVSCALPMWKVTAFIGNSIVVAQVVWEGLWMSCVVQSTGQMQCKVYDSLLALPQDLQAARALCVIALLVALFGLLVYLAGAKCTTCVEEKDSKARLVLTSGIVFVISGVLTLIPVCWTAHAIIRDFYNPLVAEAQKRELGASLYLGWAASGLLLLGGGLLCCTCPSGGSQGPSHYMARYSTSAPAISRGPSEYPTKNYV


Legend:
human CLDN3 = target: T1, human CLDN3; assay: flow cytometry on transiently transfected 293T cells
Method: (§1) Binding activity of the mouse anti-CLDN6 antibodies produced in Example 6 to human CLDN6 and its family molecules, CLDN3, CLDN4, and CLDN9, was evaluated by using a flow cytometry method. Human CLDN3/pCMV6-Entry, human CLDN4/pCMV6-Entry, human CLDN6/pCMV-Entry, human CLDN9/pCMV6-Entry, or pCMV6-Entry purchased from OriGene Technologies, Inc. was transiently transferred into 293T cells (Thermo Fisher Scientific, HCL4517) by using Lipofectamine 2000 (Thermo Fisher Scientific), and the cells were cultured under conditions of 37° C. and 5% CO₂ overnight, and then a cell suspension was prepared. […] The cells were washed twice with Dulbecco's phosphate buffered saline (Sigma-Aldrich Co. LLC) containing 5% fetal bovine serum (Hyclone) (hereinafter, referred to as 5% FBS-containing PBS), and FLUORESCEIN-CONJUGATED GOAT IGG FRACTION TO MOUSE IGG (WHOLE MOLECULE) (MP Biomedicals, Inc.) 500-fold diluted with 5% FBS-containing PBS was then added thereto, and the cells were suspended and left to stand at 4° C. for 1 hour. After washing twice with 5% FBS-containing PBS, detection was carried out by using a flow cytometer (FC500; Beckman Coulter, Inc.). Data analysis was carried out by using FlowJo (Tree Star, Inc.). […] In each graph in FIG. 40, the ordinate represents FITC fluorescence intensity indicating the amount of the binding antibody and the abscissa represents antibody concentrations.
(§2) The binding activity of the humanized anti-CLDN6 antibody produced in Example 10 to human CLDN6 and its family molecules, CLDN3, CLDN4, and CLDN9, was evaluated by using a flow cytometry method.

human CLDN4 = target: T2, human CLDN4; assay: as above
Method: as §1, §2

human CLDN6 = target: T3, human CLDN6; assay: flow cytometry (MFI) on transiently transfected 293T cells
Method: (§3) The binding activity of the humanized anti-CLDN6 antibody produced in Example 10 to human CLDN6 and its family molecules, CLDN3, CLDN4, and CLDN9, was evaluated by using a flow cytometry method. […] The cells were washed with Dulbecco's phosphate buffered saline (Sigma-Aldrich Co. LLC) containing 5% fetal bovine serum (Hyclone) (hereinafter, referred to as 5% FBS-containing PBS), and FITC AffiniPureF (ab′)2 Fragment Goat Anti-Human IgG (H+L) (Jackson ImmunoResearch Laboratories Inc.) 150-fold diluted with 5% FBS-containing PBS was then added thereto, and the cells were suspended and left to stand at 4° C. for 30 minutes. After washing with 5% FBS-containing PBS, detection was carried out by using a flow cytometer (FC500; Beckman Coulter, Inc.). Data analysis was carried out by using FlowJo (Tree Star, Inc.), and mean fluorescence intensity (MFI) of FITC, which indicates the amount of the binding antibody, was calculated. […] In each graph in FIG. 42, the abscissa represents antibody concentrations and the ordinate represents MFI.

human CLDN9 = target: T4, human CLDN9; assay: as above
Method: as §3

human claudin-6 = target: T5, human claudin-6; assay: FACS analysis of 218B1/218C7 antibodies on human claudin-6-expressing CHO-K1 cells; type: binding; conditions: forced expression by cDNA transfection
Method: Since the antigen for the 218B1 antibody and 218C7 antibody was estimated to be claudin-6 from the mass spectrometry, forced expression analysis by cDNA transfection was carried out.

BxPC-3 = assay: Internalization activity by Mab-ZAP (saporin-conjugated anti-mouse IgG), cell survival; type: cell-based; conditions: human CLDN6-negative pancreatic cancer cell line BxPC-3; antibody 1 nM, Mab-ZAP 0.5 nM; 5 days
Method: (§4) Internalization activity of the mouse anti-CLDN6 antibodies B1 and C7 was evaluated by using the anti-mouse IgG reagent, to which a toxin that inhibits protein synthesis (saporin) had been conjugated, Mab-ZAP (Advanced Targeting Systems). In this evaluation, Mab-ZAP is incorporated into cells in a manner depending on the internalization activity of a mouse anti-CLDN6 antibody, and saporin, which inhibits protein synthesis, is released in the cells to suppress cell growth.
(§5) JEG-3(ATCC HTB-36), a human choriocarcinoma cell line of human CLDN6-positive cells, NIH:OVCAR-3 (ATCC HTB-161), a human ovarian cancer cell line of human CLDN6-positive cells, or BxPC-3 (ATCC CRL-1687), a human pancreatic cancer cell line of human CLDN6-negative cells, was seeded in a 96-well cell culture microplate at 2×10^3 cells/well, and cultured under conditions of 37° C. and 5% CO2 overnight. On the next day, a mixed solution obtained by mixing each mouse anti-CLDN6 antibody or mouse IgG1 antibody (R&D Systems, Inc.) to a final concentration of 1 nM, with Mab-ZAP (final concentration: 0.5 nM) or AffiniPure Goat Anti-Mouse IgG, Fcγ Fragment Specific (Jackson ImmunoResearch Laboratories Inc.) (final concentration: 0.5 nM), without conjugated toxin, was added, and the cells were cultured under conditions of 37° C. and 5% CO2 for 5 days. The number of surviving cells was determined through quantification of ATP activity by using CellTiter-Glo Luminescent Cell Viability Assay (Promega Corporation).

JEG-3 = assay: as above; type: cell-based; conditions: human CLDN6-positive choriocarcinoma cell line JEG-3; antibody 1 nM, Mab-ZAP 0.5 nM; 5 days
Method: as §4, §5

NIH:OVCAR-3 = assay: as above; type: cell-based; conditions: human CLDN6-positive ovarian cancer cell line NIH:OVCAR-3; antibody 1 nM, Mab-ZAP 0.5 nM; 5 days
Method: as §4, §5

| Molecule | binding result (human CLDN3) | binding result (human CLDN4) | binding result (human CLDN6) | binding result (human CLDN9) | FACS reaction for human claudin-6-expressing CHO-K1 cells (human claudin-6) | cell growth-suppressing effect (relative survival rate) with Mab-ZAP (BxPC-3) | cell growth-suppressing effect (relative survival rate) with Mab-ZAP (JEG-3) | cell growth-suppressing effect (relative survival rate) with Mab-ZAP (NIH:OVCAR-3) |
| --- | --- | --- | --- | --- | --- | --- | --- | --- |
| humanized anti-CLDN6 antibody H1L3 (antibody, human IgG1, kappa, L234A L235A, V domains shown, hH1 + hL3, with human IgG1 LALA constant region and human kappa chain; also called H1L3 antibody) VH: QVQLVQSGAEVKKPGASVKVSCKASGYTFTEYTMHWVRQAPGQGLEWMGGVNPNSGDTSYAQKFQGRVTITADTSTSTAYMELSSLRSEDTAVYYCARPGGYDVGYYAMDYWGQGTLVTVSS VL: DIQMTQSPSSLSASVGDRVTITCRASQDINNYLNWYQQKPGGAVKLLIYFTSRLHSGVPSRFSGSGSGTDYTLTISSLQPEDFATYYCQQGYPLPWTFGGGTKVEIKR | no binding (tested: 100 nM) | no binding (tested: 100 nM) | binds | binds | – | – | – | – |
| humanized anti-CLDN6 antibody H2L2 (antibody, human IgG1, kappa, L234A L235A, V domains shown, hH2 + hL2, with human IgG1 LALA constant region and human kappa chain; also called H2L2 antibody) VH: EVQLVQSGAEVKKPGASVKVSCKTSGYTFTEYTMHWVRQAPGKSLEWMGGVNPNSGDTSYAQKFQGRVTITADTSTSTAYMELSSLRSEDTAVYYCARPGGYDVGYYAMDYWGQGTLVTVSS VL: DIQMTQSPSSLSASVGDRVTITCRASQDINNYLNWYQQKPGKAVKLLIYFTSRLHSGVPSRFSGSGSGTHYTLTISSLQPEDFATYYCQQGYPLPWTFGQGTKVEIKR | no binding (tested: 100 nM) | no binding (tested: 100 nM) | binds | binds | – | – | – | – |
| humanized anti-CLDN6 antibody H2L4 (antibody, human IgG1, kappa, L234A L235A, V domains shown, also called H2L4 antibody) VH: EVQLVQSGAEVKKPGASVKVSCKTSGYTFTEYTMHWVRQAPGKSLEWMGGVNPNSGDTSYAQKFQGRVTITADTSTSTAYMELSSLRSEDTAVYYCARPGGYDVGYYAMDYWGQGTLVTVSS VL: DIQMTQSPSSLSASVGDRVTITCRASQDINNYLNWYQQKPGGAVKLLIYFTSRLHSGVPSRFSGSGSGTDYTLTISSLQPEDFATYYCQQGNTLPWTFGGGTKVEIKR | no binding (tested: 100 nM) | no binding (tested: 100 nM) | binds | binds | – | – | – | – |
| humanized anti-CLDN6 antibody H3L3 (antibody, human IgG1, kappa, L234A L235A, V domains shown, hH3 + hL3, with human IgG1 LALA constant region and human kappa chain; also called H3L3 antibody) VH: EVQLVQSGAEVKKPGASVKVSCKTSGYTFTEYTMHWVRQAPGQGLEWMGGVNPNSGDTSYAQKFQGRVTLTVDKSTSTAYMELSSLRSEDTAVYYCARPGGYDVGYYAMDYWGQGTLVTVSS VL: DIQMTQSPSSLSASVGDRVTITCRASQDINNYLNWYQQKPGGAVKLLIYFTSRLHSGVPSRFSGSGSGTDYTLTISSLQPEDFATYYCQQGYPLPWTFGGGTKVEIKR | no binding (tested: 100 nM) | no binding (tested: 100 nM) | binds | binds | – | – | – | – |
| humanized anti-CLDN6 antibody H1L1 (antibody, human IgG1, kappa, L234A L235A, V domains shown, hH1 + hL1, with human IgG1 LALA constant region and human kappa chain; also called H1L1 antibody) VH: QVQLVQSGAEVKKPGASVKVSCKASGYTFTEYTMHWVRQAPGQGLEWMGGVNPNSGDTSYAQKFQGRVTITADTSTSTAYMELSSLRSEDTAVYYCARPGGYDVGYYAMDYWGQGTLVTVSS VL: DIQMTQSPSSLSASVGDRVTITCRASQDINNYLNWYQQKPGKAPKLLIYFTSRLHSGVPSRFSGSGSGTDYTLTISSLQPEDFATYYCQQGYPLPWTFGQGTKVEIKR | no binding (tested: 100 nM) | no binding (tested: 100 nM) | binds | binds | – | – | – | – |
| B1: mouse anti-CLDN6 antibody; heavy/light chain variable regions SEQ ID NO: 21 and 19 (antibody, listed as Mus musculus, V domains shown, amino acid sequence of variable region of B1 antibody heavy chain; amino acid sequence of variable region of B1 antibody light chain) VH: EVQLQQSGPELVKPGASVKISCKTSGYTFTEYTMHWVQQSHGKSLEWIGGVNPNSGDTSYNQKFKGKATLTVDKSSSTAYMELRSLTSEDSAVYYCARPGGYDVGYYAMDYWGQGTSVTVSS VL: DIQMTQTASSLSASLGDRVTISCRASQDINNYLNWYQQKPDGTVKLLIYFTSRLHSGVPSRFSGSGSGTHYSLTITNLEQEDIATYFCQQGYPLPWTFGGGTKLEIK | – | – | – | – | strong positive reaction | no cell growth-suppressing effect | cell growth-suppressing effect | cell growth-suppressing effect |

— patent US20220168440A1, “ANTIBODY-PYRROLOBENZODIAZEPINE DEPRIVATIVE CONJUGATE” (DAIICHI SANKYO COMPANY, LIMITED, priority 2019, published 2022)
